# Experimental data published in publication PMC9332573.
# What was measured:
# [1] = target: C157S mutant of hDHHC3-Δ35 (hDHHS3-Δ35), C-terminal Twin-Strep tagged (human) (UniProt Q9NYG2); experiment: SDS-PAGE; purified hDHHS3-Δ35 on SDS-PAGE; dimeric band at ≈50 kDa (Figure S5A)
# [2] = target: C157S mutant of hDHHC3-Δ35 (hDHHS3-Δ35), C-terminal Twin-Strep tagged (human) (UniProt Q9NYG2); experiment: cryo-EM 2D classification; hDHHS3-Δ35 in GDN micelles from SEC peak 1; 200 kV Talos Arctica; 2D class averages with RELION 3; no 3D reconstruction
substance,measurement,setting,value
"C157S mutant of hDHHC3-Δ35 (hDHHS3-Δ35), C-terminal Twin-Strep tagged (from UniProt Q9NYG2-2 36-299) (enzyme)",oligomeric state (number of subunits),[1],2
same,stoichiometry N,[2],2
